Measured values taken from patent US20260167699A1 (Chugai, published 2026).

B1: GpH7-A5/GpH7-B3 variant G236_04F/GpL16-k0 (antibody, human IgG1, kappa)
heavy 1: not shown
heavy 2: not shown
light: DIVMTQSPLSLPVTPGEPASISCQASESLVHSNRNTYLHWYLQKPGQSPQLLIYKVSNRFSGVPDRFSGSGSGTDFTLKISRVEAEDVGVYYCSQNTHVPPTFGQGTKVEIERTVAAPSVFIFPPSDEQLKSGTASVVCLLNNFYPREAKVQWKVDNALQSGNSQESVTEQDSKDSTYSLSSTLTLSKADYEKHKVYACEVTHQGLSSPVTKSFNRGEC
notes: copies: 1 + 1 + 2
B2: GpH7-A5/GpH7-B3 variant G236_07I/GpL16-k0 (antibody, human IgG1, kappa)
heavy 1: not shown
heavy 2: not shown
light: B1 light
notes: copies: 1 + 1 + 2
B3: GpH7-A5/GpH7-B3 variant G236_09D/GpL16-k0 (antibody, human IgG1, kappa)
heavy 1: not shown
heavy 2: not shown
light: B1 light
notes: copies: 1 + 1 + 2
B4: GpH7-A5/GpH7-B3 variant G236_10E/GpL16-k0 (antibody, human IgG1, kappa)
heavy 1: not shown
heavy 2: not shown
light: B1 light
notes: copies: 1 + 1 + 2
B5: GpH7-A5/GpH7-B3 variant G236_13S/GpL16-k0 (antibody, human IgG1, kappa)
heavy 1: not shown
heavy 2: not shown
light: B1 light
notes: copies: 1 + 1 + 2
B6: GpH7-A5/GpH7-B3 variant G236_15Y/GpL16-k0 (antibody, human IgG1, kappa)
heavy 1: not shown
heavy 2: not shown
light: B1 light
notes: copies: 1 + 1 + 2
B7: GpH7-A5/GpH7-B3 variant G236_20W/GpL16-k0 (antibody, human IgG1, kappa)
heavy 1: not shown
heavy 2: not shown
light: B1 light
notes: copies: 1 + 1 + 2
B8: GpH7-A5/GpH7-B3 variant G237_03V/GpL16-k0 (antibody, human IgG1, kappa)
heavy 1: not shown
heavy 2: not shown
light: B1 light
notes: copies: 1 + 1 + 2
B9: GpH7-A5/GpH7-B3 variant G237_14T/GpL16-k0 (antibody, human IgG1, kappa)
heavy 1: not shown
heavy 2: not shown
light: B1 light
notes: copies: 1 + 1 + 2
B10: GpH7-A5/GpH7-B3 variant H268_01G/GpL16-k0 (antibody, human IgG1, kappa)
heavy 1: not shown
heavy 2: not shown
light: B1 light
notes: copies: 1 + 1 + 2
B11: GpH7-A5/GpH7-B3 variant H268_02A/GpL16-k0 (antibody, human IgG1, kappa)
heavy 1: not shown
heavy 2: not shown
light: B1 light
notes: copies: 1 + 1 + 2
B12: GpH7-A5/GpH7-B3 variant H268_03V/GpL16-k0 (antibody, human IgG1, kappa)
heavy 1: not shown
heavy 2: not shown
light: B1 light
notes: copies: 1 + 1 + 2
B13: GpH7-A5/GpH7-B3 variant H268_04F/GpL16-k0 (antibody, human IgG1, kappa)
heavy 1: not shown
heavy 2: not shown
light: B1 light
notes: copies: 1 + 1 + 2
B14: GpH7-A5/GpH7-B3 variant H268_05P/GpL16-k0 (antibody, human IgG1, kappa)
heavy 1: not shown
heavy 2: not shown
light: B1 light
notes: copies: 1 + 1 + 2
B15: GpH7-A5/GpH7-B3 variant H268_06M/GpL16-k0 (antibody, human IgG1, kappa)
heavy 1: not shown
heavy 2: not shown
light: B1 light
notes: copies: 1 + 1 + 2
B16: GpH7-A5/GpH7-B3 variant H268_07I/GpL16-k0 (antibody, human IgG1, kappa)
heavy 1: not shown
heavy 2: not shown
light: B1 light
notes: copies: 1 + 1 + 2
B17: GpH7-A5/GpH7-B3 variant H268_08L/GpL16-k0 (antibody, human IgG1, kappa)
heavy 1: not shown
heavy 2: not shown
light: B1 light
notes: copies: 1 + 1 + 2
B18: GpH7-A5/GpH7-B3 variant H268_09D/GpL16-k0 (antibody, human IgG1, kappa)
heavy 1: not shown
heavy 2: not shown
light: B1 light
notes: copies: 1 + 1 + 2
B19: GpH7-A5/GpH7-B3 variant H268_10E/GpL16-k0 (antibody, human IgG1, kappa)
heavy 1: not shown
heavy 2: not shown
light: B1 light
notes: copies: 1 + 1 + 2
B20: GpH7-A5/GpH7-B3 variant H268_11K/GpL16-k0 (antibody, human IgG1, kappa)
heavy 1: not shown
heavy 2: not shown
light: B1 light
notes: copies: 1 + 1 + 2
B21: GpH7-A5/GpH7-B3 variant H268_12R/GpL16-k0 (antibody, human IgG1, kappa)
heavy 1: not shown
heavy 2: not shown
light: B1 light
notes: copies: 1 + 1 + 2
B22: GpH7-A5/GpH7-B3 variant H268_13S/GpL16-k0 (antibody, human IgG1, kappa)
heavy 1: not shown
heavy 2: not shown
light: B1 light
notes: copies: 1 + 1 + 2
B23: GpH7-A5/GpH7-B3 variant H268_14T/GpL16-k0 (antibody, human IgG1, kappa)
heavy 1: not shown
heavy 2: not shown
light: B1 light
notes: copies: 1 + 1 + 2
B24: GpH7-A5/GpH7-B3 variant H268_15Y/GpL16-k0 (antibody, human IgG1, kappa)
heavy 1: not shown
heavy 2: not shown
light: B1 light
notes: copies: 1 + 1 + 2
B25: GpH7-A5/GpH7-B3 variant H268_18N/GpL16-k0 (antibody, human IgG1, kappa)
heavy 1: not shown
heavy 2: not shown
light: B1 light
notes: copies: 1 + 1 + 2
B26: GpH7-A5/GpH7-B3 variant H268_19Q/GpL16-k0 (antibody, human IgG1, kappa)
heavy 1: not shown
heavy 2: not shown
light: B1 light
notes: copies: 1 + 1 + 2
B27: GpH7-A5/GpH7-B3 variant H268_20W/GpL16-k0 (antibody, human IgG1, kappa)
heavy 1: not shown
heavy 2: not shown
light: B1 light
notes: copies: 1 + 1 + 2
B28: GpH7-A5/GpH7-B3 variant I332_01G/GpL16-k0 (antibody, human IgG1, kappa)
heavy 1: not shown
heavy 2: not shown
light: B1 light
notes: copies: 1 + 1 + 2
B29: GpH7-A5/GpH7-B3 variant I332_02A/GpL16-k0 (antibody, human IgG1, kappa)
heavy 1: not shown
heavy 2: not shown
light: B1 light
notes: copies: 1 + 1 + 2
B30: GpH7-A5/GpH7-B3 variant I332_03V/GpL16-k0 (antibody, human IgG1, kappa)
heavy 1: not shown
heavy 2: not shown
light: B1 light
notes: copies: 1 + 1 + 2

target: T1, FcγRIIIa (human, UniProt P08637 17-208); test: SPR (Biacore);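 also: antibody variants captured on an SPR sensor chip, with FcγRIIIa passed over as analyte in HBS-EP+ buffer at 25 °C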
T1 construct: extracellular domain; also called 3a; FcγRIIIa extracellular domain
T1 sequence (P08637 other isoform, or with tags, fused parts or gaps): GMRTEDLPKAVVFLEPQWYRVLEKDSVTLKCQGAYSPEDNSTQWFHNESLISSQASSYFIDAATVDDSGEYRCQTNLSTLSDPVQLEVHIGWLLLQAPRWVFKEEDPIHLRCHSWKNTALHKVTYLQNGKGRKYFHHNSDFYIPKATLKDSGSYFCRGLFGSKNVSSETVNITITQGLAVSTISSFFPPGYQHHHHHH

Going from B1 to B2, the “He/Con 3a” value falls from 81 % of GpH7-A5/GpH7-B3/GpL16-k0 to 55.6 % of GpH7-A5/GpH7-B3/GpL16-k0.

Compared with B3, B4 is lower in “He/Con 3a” value: 66.2 % of GpH7-A5/GpH7-B3/GpL16-k0 for the first, 65.8 % of GpH7-A5/GpH7-B3/GpL16-k0 for the second.

First: B5
Second: B6
The “He/Con 3a” value of the first is lower: 60.3 % of GpH7-A5/GpH7-B3/GpL16-k0 for the first, 112 % of GpH7-A5/GpH7-B3/GpL16-k0 for the second.

Compared with B7, B8 is lower in “He/Con 3a” value: 126 % of GpH7-A5/GpH7-B3/GpL16-k0 for the first, 51.3 % of GpH7-A5/GpH7-B3/GpL16-k0 for the second.

Going from B9 to B10, the “He/Con 3a” value rises from 50.5 % of GpH7-A5/GpH7-B3/GpL16-k0 to 95.7 % of GpH7-A5/GpH7-B3/GpL16-k0.

First: B11
Second: B12
The “He/Con 3a” value of the first is higher: 121 % of GpH7-A5/GpH7-B3/GpL16-k0 for the first, 91.4 % of GpH7-A5/GpH7-B3/GpL16-k0 for the second.

First: B13
Second: B14
The “He/Con 3a” value of the first is higher: 96 % of GpH7-A5/GpH7-B3/GpL16-k0 for the first, 75.6 % of GpH7-A5/GpH7-B3/GpL16-k0 for the second.

Going from B15 to B16, the “He/Con 3a” value rises from 79.5 % of GpH7-A5/GpH7-B3/GpL16-k0 to 84.1 % of GpH7-A5/GpH7-B3/GpL16-k0.

Compared with B17, B18 is higher in “He/Con 3a” value: 75.9 % of GpH7-A5/GpH7-B3/GpL16-k0 for the first, 195 % of GpH7-A5/GpH7-B3/GpL16-k0 for the second.

Compared with B19, B20 is lower in “He/Con 3a” value: 184 % of GpH7-A5/GpH7-B3/GpL16-k0 for the first, 81.6 % of GpH7-A5/GpH7-B3/GpL16-k0 for the second.

First: B21
Second: B22
The “He/Con 3a” value of the first is lower: 76 % of GpH7-A5/GpH7-B3/GpL16-k0 for the first, 121 % of GpH7-A5/GpH7-B3/GpL16-k0 for the second.

First: B23
Second: B24
The “He/Con 3a” value of the first is lower: 90.3 % of GpH7-A5/GpH7-B3/GpL16-k0 for the first, 96.5 % of GpH7-A5/GpH7-B3/GpL16-k0 for the second.

Compared with B25, B26 is higher in “He/Con 3a” value: 103 % of GpH7-A5/GpH7-B3/GpL16-k0 for the first, 113 % of GpH7-A5/GpH7-B3/GpL16-k0 for the second.

First: B27
Second: B28
The “He/Con 3a” value of the first is lower: 82 % of GpH7-A5/GpH7-B3/GpL16-k0 for the first, 101 % of GpH7-A5/GpH7-B3/GpL16-k0 for the second.

Going from B29 to B30, the “He/Con 3a” value falls from 103 % of GpH7-A5/GpH7-B3/GpL16-k0 to 85.2 % of GpH7-A5/GpH7-B3/GpL16-k0.
